This test has as its target T1, FcεRII (CD23, low affinity IgE receptor) (human, UniProt P06734 1-321).
T1 construct: whole, on cells
T1 sequence (looked up): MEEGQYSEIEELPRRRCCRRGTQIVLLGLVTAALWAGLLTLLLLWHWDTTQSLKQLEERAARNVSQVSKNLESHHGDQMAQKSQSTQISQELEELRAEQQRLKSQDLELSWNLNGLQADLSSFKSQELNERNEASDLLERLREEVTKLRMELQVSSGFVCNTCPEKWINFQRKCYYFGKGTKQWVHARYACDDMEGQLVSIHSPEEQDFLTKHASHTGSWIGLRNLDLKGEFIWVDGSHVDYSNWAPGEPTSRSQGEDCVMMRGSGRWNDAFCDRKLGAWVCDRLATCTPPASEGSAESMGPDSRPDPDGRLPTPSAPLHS
The test can be described thus: flow cytometry on human primary monocytes and U937 cells. The text has this: FIG. 3: Flow cytometric histograms showing HMW-MAA-IgE binding. A: Binding of chimaeric IgE to A375 melanoma tumour cells (left) but not to melanocytes (right). B: Binding of IgE to U937 monocytic cells (left) and to primary […] (right). Antibody binding was detected using a goat anti-human IgE-FITC antibody. C: Flow cytometric histograms showing HMW-MAA-IgG binding to A375 melanoma tumour cells (left) and U937 monocytic cells (right). Antibody binding was detected using a goat anti-human IgG-FITC antibody.
The interactions of anti-HMW-MAA antibodies with A375 melanoma tumour cells were analysed by flow cytometry and immunofluoresence. […] The IgE antibody also bound to FcεR-expressing human primary monocytes and cells of the monocytic cell line U937, which also express both IgE receptors, FcεRI and FcεRII at low densities (FIG. 3). The IgG1 antibody bound to the surface of A375 melanoma cells and U937 monocytic cells (FIG. 3C). […] Therefore, both chimaeric antibodies of known specificity could be engineered that recognised the expected tumour target and immune effector cells.
(In flow cytometry, cells or beads pass a laser one at a time.)

B1: chimeric anti-HMW-MAA IgE antibody (antibody)
heavy: QVKLQQSGGGLVQPGGSMKLSCVVSGFTFSNYWMNWVRQSPEKGLEWIAEIRLKSNNFGRYYAESVKGRFTISRDDSKSSAYLQMINLRAEDTGIYYCTSYGNYVGHYFDHWGQGTTVTVSSASTQSPSVFPLTRCCKNIPSNATSVTLGCLATGYFPEPVMVTWDTGSLNGTTMTLPATTLTLSGHYATISLLTVSGAWAKQMFTCRVAHTPSSTDWVDNKTFSVCSRDFTPPTVKILQSSCDGGGHFPPTIQLLCLVSGYTPGTINITWLEDGQVMDVDLSTASTTQEGELASTQSELTLSQKHWLSDRTYTCQVTYQGHTFEDSTKKCADSNPRGVSAYLSRPSPFDLFIRKSPTITCLVVDLAPSKGTVNLTWSRASGKPVNHSTRKEEKQRNGTLTVTSTLPVGTRDWIEGETYQCRVTHPHLPRALMRSTTKTSGPRAAPEVYAFATPEWPGSRDKRTLACLIQNFMPEDISVQWLHNEVQLPDARHSTTQPRKTKGSGFFVFSRLEVTRAEWEQKDEFICRAVHEAASPSQTVQRAVSVNPGK
light: DIELTQSPKFMSTSVGDRVSVTCKASQNVDTNVAWYQQKPGQSPEPLLFSASYRYTGVPDRFTGSGSGTDFTLTISNVQSEDLAEYFCQQYNSYPLTFGGGTKLEIKRTVAAPSVFIFPPSDEQLKSGTASVVCLLNNFYPREAKVQWKVDNALQSGNSQESVTEQDSKDSTYSLSSTLTLSKADYEKHKVYACEVTHQGLSSPVTKSFNRGEC
notes: Mouse 225.28s variable regions on human epsilon and kappa constant regions; expressed in HEK cells; also called chimaeric IgE; chimaeric 225.28s IgE
For B1, the binding result is “binds”.
